System: TbRpf2 (Trypanosoma brucei (427?))
Experiment: filter binding
Settings: no Rrs1; 1 mM EDTA; error presumably SEM, 3 replicates; 10 mM Tris pH 7.4, 1 mM EDTA, 100 mM NaCl, 100 ug/ml BSA, 30 min, room temperature; RNA <0.5 nM, protein 0-250 nM

Substance: T. brucei 5S rRNA
- Kd: 26 nM

From PMC5646243
